Data taken from a protein production outcome set (Wang et al. 2014).

Assay: label from the status in PepcDB records

| Sequence | protein production |
| --- | --- |
| MWNATPSEEPGFNLTLADLDWDASPGNDSLGDELLQLFPAPLLAGVTATCVALFVVGIAGNLLTMLVVSRFRELRTTTNLYLSSMAFSDLLIFLCMPLDLVRLWQYRPWNFGDLLCKLFQFVSESCTYATVLTITALSVERYFAICFPLRAKVVVTKGRVKLVIFVIWAVAFCSAGPIFVLVGVEHENGTDPWDTNECRPTEFAVRSGLLTVMVWVSSIFFFLPVFCLTVLYSLIGRKLWRRRRGDAVVGASLRDQNHKQTVKMLGGSQRALRLSLAGPILSLCLLPSL | failed |
| MWFQLSSLRSILNVSTALRQVVVRTPWYAKRKSYKVLFWREITPLAIPIFLENTCVLLMGVLSTFLVSWLGKEAMAGVGLADSFNMVIMAFFAAIDLGTTVVVAFSLGKRDRRRARAAARQSLVIMTLFAVVLAVVIHYFGSEIINIVAGEATPEVKGLALTYLELTVLSYPAAAIALIGSGALRGAGNTKIPLMINGGMNILNIVISSILIYGAFSWQGLGFAGAGLGLTISRYIGAVAIIWVLMIGFNPALRIPLKSYLKPLNFGIIWEVMGIGIPASIESVLFNGGKLLTQMFVAGMGTNVIAGNFIAFSVAALINLPGNALGSASTIITGKRLGTGQIGQAERQLRHVFWMSTIVLTAIAWGTAPFAGLFASFYTQEQDVKEVVKVLLWLNAAFMPIWAAAWVLPSGFKGARDVRFAMWVSMLGMWGCRVVAGYTLGIVLGMGVVGVWLGMFLDWAVRGALFYWRLISGRWLWRYPRVKRE | failed |
| MEEAPQVGDRLHCYWNLVSKDREKVFEAVVTDVETVSFRELRENDELAREDGFRDAKQLEEEFQRMYQGELTDDTEFQVIRFRKLPVDEWEGKRIDEKAMITRRADILFDSGKFSKSELCYTAALRIDPNDVYILNRLGDNLTRLGRFDEALENYRRAIMIEPENPYIWNNMAITLLNAGRVDEALEASERALKIKHDPDLLYWRGVMLEVAGKPLEALESYERSLEIDPRNAEVWTARGNLLSDLGRMEEAIESYNSALELALEDEQDPNVWNRKGNALLELERFNEALECYRRAIEMEPENDVYWTNMGVALLELERFDEALEAFNRALMINPKNEDAGILREECLENL | failed |
| MEVLLDVKERMSILKNFYDEVRVVDPINNIVFSDDFNLKINNKFNEKDCSLSNCYDVWGKKSMCSTCISKKAYLKNDTFIKLEYNKNHVFLVIASPIEFNENKYVVEILKDITNNGSIVDGSGEGNYLDLTMKKMGENLIKDYLTGVYNKRYIDQRFSKEAHRNLKESIPTTVIMTDIDSFKKVNDTYGHLVGDKILRDFAKVLNNNIRENSDWIGRYGGEEFIIVLNNTNLKNGVKVAEKLRKIIEKMSFDYGDLSLKITSSFGVCEVSEKEDPFDTIKNADEKLYMAKMTGRNKTVF | failed |
| MTNNAKKEPQQRGKHQVHNVRFYTIKPREIVSLAYSKSSKCLALSRATPVIELWNLEHAPYLDRVIHLPTDSHVESIAWAGNRLFSVDLSGKLIEWDVIKLKQRYEHSPTGNALWSIDVNPAETDIAIGSEEGHINILSIENDEITYKSLFNKQKGRVLCIKFDKTGTKLVTGTEGFVRIWNVLKGTTLHTMTLSEKNVIVWSLQVLSDNTIIAGDSAGFVTVWDADNATQIDSTRVLDKNVFALAVNNKEDRLVCSGMQPPLIRIFSKTKIKREESTSERWIKFLQRDAHKHYVKSLLVIDDQIYSGGRDGILTITSSERMQAHLSQHAPFLKGSVASMAISKKLLLLRYPNSVHLWRLGSVAPQGEDKKKPWALPVGHTEEQLLELPPQKLLQLNVKEHNFIQSAAISSDANWICYSTLKELRISRLKSDPLQVERLVDDLPEELQPASHIIFTKQGDLVLLNPQNNHLSWFTLEEDLVTFKYTIDLSEKCKNTISHVVISSHGEYIVAASSDHIISVWKLHGKQYKHLLNLPRHRAGTTALSMHEDYPRVVVAYANGQLVEYDLVNRIFTCETNEYLIPETRRHCINGISLDPQNRNIFIVHTEGNLYVLERDQHLDPKELVSNSKSKKLSNGNRSSVDGGSKGLSLKTTLSRQHLVHVSRLSPNELVNVSISTNNLLAPLPPPYQRKKFGAS | failed |
| MFENTLVVIKGAGDIATGVGRRLFRCGFPLVMTEQLQPTPVRRTVAFAEAVYKGETTVEGVTARLIEDPAHVYSTLREGHIPIIPDPEAHIIRVLNPKVVVDAILAKKNLGTAKSNAPIVIGLGPGFTAGKDVHAVIETNRGHNLGRVILNGSAEPNTGVPGVVNGYGSERVLRSPADGAIVPIREIGDFLLKGDVIAVVEGEPVVAPFDGTLRGLVHEKVTVFKGMKIGDVDPRASREHCYTISDKALAISGGVLEAILSHRHVITE | failed |
